The assay addresses human PD-1 (residues 33–150, Cys93 exchanged to serine) (human, UniProt Q15116 33-150, Cys93 exchanged to serine, uniform 15N labelling). The assay is described as follows: NMR titration; 1H-15N HMQC, 300K; AIDA: 15N-labeled PD-1 (0.2 mM) slightly overtitrated with unlabeled PD-L1; for the mutants also NMR-monitored direct titration; PBS pH 7.4 (PD-L1) or 25 mM sodium phosphate, 100 mM NaCl pH 6.4 (PD-1). The conditions noted are these: both partners purified.

human PD-1 (residues 33–150, Cys93 exchanged to serine), sequence (Q15116 other isoform, or with tags, fused parts or gaps Cys93 exchanged to serine | Cys93 exchanged to serine): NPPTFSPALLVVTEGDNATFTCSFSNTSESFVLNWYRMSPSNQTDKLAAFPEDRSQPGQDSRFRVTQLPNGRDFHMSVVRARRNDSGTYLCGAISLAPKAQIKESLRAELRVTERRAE

B1: human PD-L1 (residues 18–134, C-terminal His-tag) (domain or fragment)
chain: AFTVTVPKDLYVVEYGSNMTIECKFPVEKQLDLAALIVYWEMEDKNIIQFVHGEEDLKVQHSSYRQRARLLKDQLSLGNAALQITDVKLQDAGVYRCMISYGGADYKRITVKVNAPY
modifications: NTA-Atto 647 N fluorescent dye on the His-tag (flow cytometry only); uniform 15N labelling (NMR titration with compounds only)
notes: PD-L1, human, residues 18-134 (Ig-like V-type domain); also called sPD-L1; soluble PD-L1; source: expressed and purified as described previously [26]; 15N labelling in M9 minimal medium; not shown: His-tag, C-terminal, kept
In the case of B1, the binding result was “binds”.

Source of the values: publication PMC5641120 (Oncotarget, 2017).
